Laboratory results from publication PMC11806106.

Columns and labels:
[1] = target: MOR-nLuc (rat µ opioid receptor, wild type, with C-terminal nLuc) (rat) (UniProt P33535)
[2] = target: rat µ opioid receptor (MOR-wt) (rat) (UniProt P33535)
[3] = target: MOR BRET sensor (G267-MOR sensor with mTurq2 replaced by nLuc2) (rat) (UniProt P33535)

In the case of DAMGO (peptide), the EC50 of agonist-induced arrestin3 interaction with MOR-nLuc (BRET, with GRK2) [1] is reported as 0.282 µM, the EC50 of Go activation (BRET-based activity sensor Go1-case) [2] is reported as 0.00292 µM and the EC50 of the agonist-induced change of the BRET ratio of the MOR BRET conformation sensor [3] is reported as 0.445 µM.
